Measured values reported in patent US20060193849A1.

Target: MUC-1 gene product, the membrane mucin glycoprotein (polymorphic epithelial mucin or PEM) (human) (UniProt P15941)
Assay: flow cytometry equilibrium binding on MCF7 cells
Conditions: scFv

Chain of MUC-1 gene product, the membrane mucin glycoprotein (polymorphic epithelial mucin or PEM) (human) (P15941 24-1255): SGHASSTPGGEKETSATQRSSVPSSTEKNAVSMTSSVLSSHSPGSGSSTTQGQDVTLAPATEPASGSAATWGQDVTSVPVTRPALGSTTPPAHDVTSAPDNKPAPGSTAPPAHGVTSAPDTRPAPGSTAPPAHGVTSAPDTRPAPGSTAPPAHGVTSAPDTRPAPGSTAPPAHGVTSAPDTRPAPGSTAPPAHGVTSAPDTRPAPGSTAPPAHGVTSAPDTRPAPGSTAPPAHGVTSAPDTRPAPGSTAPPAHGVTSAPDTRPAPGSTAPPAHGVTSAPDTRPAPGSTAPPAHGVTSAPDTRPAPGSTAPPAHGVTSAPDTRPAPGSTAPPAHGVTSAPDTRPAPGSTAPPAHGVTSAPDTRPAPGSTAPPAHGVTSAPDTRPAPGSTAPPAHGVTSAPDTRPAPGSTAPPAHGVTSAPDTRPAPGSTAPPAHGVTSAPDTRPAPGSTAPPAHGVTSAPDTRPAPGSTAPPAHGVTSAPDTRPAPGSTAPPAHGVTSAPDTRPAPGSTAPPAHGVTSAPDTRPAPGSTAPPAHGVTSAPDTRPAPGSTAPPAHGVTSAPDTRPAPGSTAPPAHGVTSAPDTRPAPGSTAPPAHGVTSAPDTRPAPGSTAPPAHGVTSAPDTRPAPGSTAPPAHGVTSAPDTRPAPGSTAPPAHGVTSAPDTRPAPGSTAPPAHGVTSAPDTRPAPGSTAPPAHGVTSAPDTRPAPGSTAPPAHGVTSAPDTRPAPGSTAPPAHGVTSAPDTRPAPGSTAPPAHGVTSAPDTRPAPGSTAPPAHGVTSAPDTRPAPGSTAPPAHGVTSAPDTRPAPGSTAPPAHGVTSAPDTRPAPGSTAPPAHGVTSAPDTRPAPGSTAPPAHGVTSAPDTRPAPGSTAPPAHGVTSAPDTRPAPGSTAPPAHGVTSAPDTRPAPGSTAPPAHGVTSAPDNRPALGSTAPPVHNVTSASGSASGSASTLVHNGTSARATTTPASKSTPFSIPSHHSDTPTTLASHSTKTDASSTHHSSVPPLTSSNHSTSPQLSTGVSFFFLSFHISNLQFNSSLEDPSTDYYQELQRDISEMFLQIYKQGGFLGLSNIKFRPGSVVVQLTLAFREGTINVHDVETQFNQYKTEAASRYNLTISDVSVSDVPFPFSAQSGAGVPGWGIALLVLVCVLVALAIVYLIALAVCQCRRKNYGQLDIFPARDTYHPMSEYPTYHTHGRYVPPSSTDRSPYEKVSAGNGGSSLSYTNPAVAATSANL

- Kd: 0.199 µM
Substance: huHMFG1 wild-type scFv 22W
